The target in one assay is HLA-B*15:01. Put plainly: IEDB peptide-MHC binding, purified MHC/competitive/fluorescence; ≥ and ≤ were set here for values at or beyond the usual limits of such assays. The note with it: source organism: Zaire ebolavirus.
Another assay has as its target HLA-A*24:02. The description is as above. As to conditions: source organism: Zaire ebolavirus.
Another assay concerns the target HLA-B*53:01. Kind of assay: IEDB peptide-MHC binding, purified MHC/competitive/radioactivity; filed as Kd, often an IC50 or EC50 that approximates it; ≥ and ≤ were set here for values at or beyond the usual limits of such assays.
The next assay concerns the target HLA-B*35:01. Described as above.
In a further assay the target is HLA-B*54:01. The assay is described as above.
Another assay deals with HLA-B*07:02. The description is as above.
Another assay deals with HLA-B*51:01. The assay is described as above.
Assay [1] addresses HLA-A*02:01. The assay is described as above.
The target of the next assay is HLA-A*02:06. Described as above.
The target of the next assay is HLA-B*18:01. Kind of assay: IEDB peptide-MHC binding, purified MHC/direct/fluorescence; filed as Kd, often an IC50 or EC50 that approximates it; ≥ and ≤ were set here for values at or beyond the usual limits of such assays. The note with it: source organism: Salmonella enterica subsp. enterica serovar Paratyphi A str. ATCC 9150.
The next assay addresses HLA-A*68:02. Kind of assay: IEDB peptide-MHC binding, purified MHC/competitive/radioactivity; filed as Kd, often an IC50 or EC50 that approximates it; ≥ and ≤ were set here for values at or beyond the usual limits of such assays.
The target of a further assay is HLA-A*02:03. The assay is described as above.
The target in another assay is HLA-A*02:02. The description is as above.
Another assay concerns the target HLA-A*26:01. The description is as above.
Assay [2] addresses HLA-A*02:01. Kind of assay: IEDB peptide-MHC binding, purified MHC/competitive/fluorescence; ≥ and ≤ were set here for values at or beyond the usual limits of such assays. The note with it: source organism: Zaire ebolavirus.
The mark [3] stands for this setting: source organism: Human alphaherpesvirus 2.
Setting [4] is: source organism: Vaccinia virus WR.
Setting [5] is: source organism: Mammarenavirus lassaense.
[6] abbreviates: source organism: Dengue virus 3 Sri Lanka/1266/2000.
The mark [7] stands for this setting: source organism: Dengue virus 4 Philippines/H241/1956.
Where [8] appears, read: source organism: Trypanosoma cruzi.
[9] abbreviates: source organism: SARS coronavirus Tor2.

A value given as a limit tells only on which side of the number the result lay.

As usually defined, the IC50 is the concentration that gives 50% inhibition. The low end stands for greater potency, the high end for weaker potency. Take AKHGEYAPF: the IC50 was at least 77400 nM with HLA-B*15:01 and 63100 nM with HLA-A*24:02.

Usually Kd stands for the concentration at which binding is half-saturated. On to APAWSRRTL, for which the equilibrium dissociation constant (Kd) with HLA-B*53:01 (setting [3]) was 3550 nM; with HLA-B*35:01 (setting [3]), 3240 nM; with HLA-B*54:01 (setting [3]) it was 5560 nM; in the assay with HLA-B*07:02 (setting [3]), 0.19 nM; in the assay with HLA-B*51:01 (setting [3]), at least 59500 nM.

Turning to APKQVAGTGV, the Kd is at least 69900 nM with HLA-B*53:01 (setting [4]); at least 69900 nM with HLA-B*35:01 (setting [4]); 266 nM in the assay with HLA-B*54:01 (setting [4]); 10.9 nM with HLA-B*07:02 (setting [4]); at least 61000 nM in the assay with HLA-B*51:01 (setting [4]).

On to AVSGGLNTSV, for which the dissociation constant Kd in the assay with HLA-A*02:01 [1] (source organism: Lassa virus Josiah) is at least 25000 nM.

With CPFLFLTVL, the Kd with HLA-B*53:01 (setting [5]) turned out to be 216 nM; with HLA-B*35:01 (setting [5]), 41.2 nM; with HLA-B*54:01 (setting [5]) it was 160 nM; with HLA-B*07:02 (setting [5]) it was 99.5 nM; with HLA-B*51:01 (setting [5]), 746 nM.

As to CPQKKKSQA, the Kd is at least 78200 nM with HLA-B*53:01 (setting [4]); at least 77400 nM with HLA-B*35:01 (setting [4]); 66.7 nM with HLA-B*54:01 (setting [4]); 105 nM with HLA-B*07:02 (setting [4]); at least 77500 nM in the assay with HLA-B*51:01 (setting [4]).

In the case of DMKKKMEDSV, the Kd with HLA-A*02:01 [1] (source organism: Homo sapiens) was 15000 nM; in the assay with HLA-A*02:06 (source organism: Homo sapiens), at least 72500 nM.

On to DPLVIPFSF, for which the Kd with HLA-B*18:01 turned out to be 3130 nM.

For DPPIPYSRV, the Kd with HLA-B*53:01 (setting [4]) is at least 31500 nM; with HLA-B*35:01 (setting [4]), at least 53400 nM; with HLA-B*54:01 (setting [4]) it was 320 nM; with HLA-B*07:02 (setting [4]) it was at least 77500 nM; in the assay with HLA-B*51:01 (setting [4]) it was 31 nM.

Regarding ELEKSKRAL, in the assay with HLA-A*68:02 (source organism: Homo sapiens), the Kd was at least 54300 nM.

For ELNDRLAVYI, the Kd with HLA-A*02:01 [1] (source organism: Homo sapiens) was 1160 nM; in the assay with HLA-A*02:03 (source organism: Homo sapiens), 1220 nM; in the assay with HLA-A*68:02 (source organism: Homo sapiens), 50.6 nM; with HLA-A*02:02 (source organism: Homo sapiens) it was 134 nM; with HLA-A*02:06 (source organism: Homo sapiens), at least 30400 nM.

With EPSGNNYHI, the Kd with HLA-B*53:01 (setting [4]) was 20.3 nM; with HLA-B*35:01 (setting [4]), at least 44300 nM; with HLA-B*54:01 (setting [4]) it was 1580 nM; in the assay with HLA-B*07:02 (setting [4]), 1420 nM; with HLA-B*51:01 (setting [4]) it was 692 nM.

ETYQLWTALV: the Kd in the assay with HLA-A*26:01 (setting [6]) is 56.6 nM; with HLA-A*68:02 (setting [6]), 0.07 nM.

On to EVALLRTYCI, for which the figures for the Kd with HLA-A*26:01 (setting [7]) and with HLA-A*68:02 (setting [7]) were 6170 nM and 29.7 nM, respectively.

Consider FGMFTTNIW, for which, in the assay with HLA-B*53:01 (setting [7]), the Kd came to 20.5 nM.

For the sequence FLSHDFTLV, the Kd was found to be 0.142 nM with HLA-A*02:03 (setting [8]), 636 nM with HLA-A*68:02 (setting [8]), 0.0619 nM with HLA-A*02:02 (setting [8]) and 0.765 nM in the assay with HLA-A*02:06 (setting [8]).

Regarding FPQVGGLTSI, the dissociation constant Kd in the assay with HLA-B*53:01 (setting [9]) came to 24 nM; with HLA-B*35:01 (setting [9]), 609 nM; in the assay with HLA-B*54:01 (setting [9]), 25.7 nM; with HLA-B*07:02 (setting [9]), 162 nM; with HLA-B*51:01 (setting [9]), 76.8 nM.

Regarding FVEGVSGGAW, the Kd with HLA-B*53:01 (setting [7]) is 209 nM.

Regarding GIGILTVIL, the dissociation constant Kd with HLA-A*02:01 [1] (source organism: Homo sapiens) was 1000 nM.

As to GITRPTTVV, the Kd is at least 50700 nM in the assay with HLA-A*02:01 [1] (setting [8]); 795 nM with HLA-A*02:03 (setting [8]); 3150 nM in the assay with HLA-A*68:02 (setting [8]); 14000 nM in the assay with HLA-A*02:02 (setting [8]); 6130 nM with HLA-A*02:06 (setting [8]).

For the sequence GQQFYWPVM, the results for the half-inhibitory concentration (IC50) with HLA-A*02:01 [2], with HLA-B*15:01 and with HLA-A*24:02 were 5740 nM, 1520 nM and 114 nM, respectively.

On to GSFGDIYLA, for which the Kd with HLA-A*02:01 [1] (source organism: Homo sapiens) worked out at 232 nM.

GVLPLLLLYS: the Kd in the assay with HLA-A*02:01 [1] (setting [8]) was found to be 2370 nM; with HLA-A*02:03 (setting [8]), 673 nM; with HLA-A*68:02 (setting [8]), 3560 nM; with HLA-A*02:02 (setting [8]), 1300 nM; with HLA-A*02:06 (setting [8]), 14.9 nM.

For the origin of these results see the Immune Epitope Database (IEDB).
